One assay has as its target human growth hormone secretagogue receptor (human) (UniProt Q92847). As to the kind of experiment: (125I)ghrelin displacement, hGHS-R CHO-K1 membranes.
human growth hormone secretagogue receptor (human), sequence (Q92847 whole entry): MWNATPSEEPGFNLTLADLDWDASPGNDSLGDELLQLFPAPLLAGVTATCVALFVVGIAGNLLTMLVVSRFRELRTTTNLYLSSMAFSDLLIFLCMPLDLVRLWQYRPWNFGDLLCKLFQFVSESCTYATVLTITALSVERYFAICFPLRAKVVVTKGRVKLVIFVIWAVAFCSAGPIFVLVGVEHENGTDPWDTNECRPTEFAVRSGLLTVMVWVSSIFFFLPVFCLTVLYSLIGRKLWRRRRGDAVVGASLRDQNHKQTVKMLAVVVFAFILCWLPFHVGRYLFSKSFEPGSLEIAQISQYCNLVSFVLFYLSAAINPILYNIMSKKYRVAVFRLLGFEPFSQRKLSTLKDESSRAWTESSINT
T1 sequence (Q92847 whole entry): as above
One may read the Ki as a dissociation constant, usually derived from enzyme kinetics or from competition with a known ligand. Low values mean a stronger hold on the target, high ones a looser hold on the target. The molecule H-Apc-D-1-Nal-D-Trp-Phe-NH2 (peptide) returned a Ki of 700 pM.

H-Apc-D-1-Nal-D-Trp-Taz-NH2 (peptide) displayed an inhibitory constant (Ki) of 1410 pM. Compared with the last molecule, the Ki is about 2-fold higher. The molecule “H-Apc-D-Bal-D-2-Nal-Phe-Lys-NH2 (peptide)” registered a Ki of 680 pM.

For the molecule “H-Apc-D-Bal-D-Trp-2-Thi-Apc-NH2 (peptide)”, the Ki was 510 pM. Same read-out and setting: the figure for H-Apc-D-Bal-D-Trp-Phe-Apc-NH2 (peptide) is 710 pM; for H-Apc-D-Bal-D-Trp-Taz-Lys-NH2 (peptide) it is 500 pM. Regarding H-Inp-D-2-Nal-D-Trp(Ψ)-Pim (peptide), the Ki was 117000 pM. This Ki lies about 230-fold higher than the previous one. Regarding “H-Inp-D-2-Nal-D-Trp-Taz-Lys-NH2 (peptide)”, the Ki was determined as 800 pM. Take “H-Inp-D-Bal-D-Trp-2-Thi-Apc-NH2 (peptide)”: the Ki came out at 400 pM. Still for that read-out and setting: the same measure for H-Inp-D-Bal-D-Trp-Phe-Lys-NH2 (peptide): 330 pM. In the case of H-Inp-D-Bal-D-Trp-Taz-Apc-NH2 (peptide), the Ki stood at 830 pM. On the same count and under the same terms, the same measure for H-Inp-D-Bal-D-Trp-Taz-Lys-NH2 (peptide): 520 pM. Molecule H-Inp-D-Bip-D-Trp-Phe-NH2 (peptide) had a Ki of 20000 pM. The same measure, in the same setting: the figure for Inp-D-2-Nal-D-Trp-Phe-Lys-NH2 (peptide) is 300 pM.

Another assay addresses T1, human growth hormone secretagogue receptor (human, UniProt Q92847 1-366).
T1 construct: whole, on cells; also called hGHS-R; ghrelin receptor
The description is as above.
Experimental: Membranes for radioligand binding studies can be and were prepared by homogenization of the foregoing CHO-KL cells expressing the human recombinant GHS receptor. The cells were homogenized in 20 ml of ice-cold 50 mM Tris-HCl using a Brinkman Polytron® (Westbury, N.Y.; setting 6, 15 sec). The homogenates were washed twice by centrifugation (39,000 g/10 min) and the final pellets were resuspended in 50 mM Tris-HCl containing 2.5 mM MgCh and 0.1% bovine serum albumin (BSA). […] The filters were then washed three times with 5-ml aliquots of ice-cold 50 mM Tris-HCl and 0.1% BSA, and the bound radioactivity trapped on the filters was counted by gamma spectrometry (Wallac LKB, Gaithersburg, Md.).
GSXFLSPEHQRVQQRKESKKPPAKLQPR (Glu(O-hexyl) 3; C-terminal amide) [(Glu^3(O-hexyl))hGhrelin(1-28)-NH2]: the affinity corresponds to a Ki of 500 pM. This lies in the sub-nanomolar range.

(Values after patent US20090304724A1 (IPSEN PHARMA S A S, published 2009).)
